Experimental data published in US20130224145A1.

Biological target: Fas on the cell surface of human Jurkat T cell line (human) (UniProt P25445)
Test: cell-based or functional assay

Chain of UniProt P25445 (P25445 26-335): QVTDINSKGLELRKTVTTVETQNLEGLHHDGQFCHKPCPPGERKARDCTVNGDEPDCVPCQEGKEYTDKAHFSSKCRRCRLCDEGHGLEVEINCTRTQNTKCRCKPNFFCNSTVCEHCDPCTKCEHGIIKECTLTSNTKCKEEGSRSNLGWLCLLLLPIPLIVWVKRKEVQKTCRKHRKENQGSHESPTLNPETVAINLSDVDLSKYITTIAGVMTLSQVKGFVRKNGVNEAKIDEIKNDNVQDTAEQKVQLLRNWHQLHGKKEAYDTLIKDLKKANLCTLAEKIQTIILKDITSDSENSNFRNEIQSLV

streptavidin-FasL fusion protein (SAFasL) (from UniProt P48023 103-281) (ligand)
cytotoxicity relative to the anti-Fas antibody: 3 times | dead cells (Propidium Iodide staining of Jurkat T cells after 24 hr): 87%
